From the supplement of paper PMC12042874
± gives the uncertainty stated by the source.

Assay: amyloid nucleation score (Sup35N fusion, yeast selection) (log enrichment); library NNK1; higher = more nucleation; inactive = no reads after selection
Summary of the method: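 On medium lacking adenine and uracil, psi-negative yeast expressing peptides of 20 random codons fused to Sup35N were grown 7 days at 30°C after a 24-hour induction with 100 μM copper sulfate. Illumina sequencing of input and output plasmid inserts gave the reads, and sequences under 100 input reads were excluded. The nucleation score is the DiMSum log enrichment of output over input reads, centred on the mode score of non-aggregating sequences.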

Compared with MFIYIYGVPVLTLWGFNVCV, MFMSWVDFNLD is lower in amyloid nucleation score: 0.856 ± 0.48 for the first, 0.066 ± 0.29 for the second.

MFNRWDIHFIGNNNLYGICV and MFSLYYPFSNWFDLI are within error of each other in amyloid nucleation score: 0.613 ± 0.26 for the first, -0.001 ± 0.52 for the second.

MFTWEL and MFYKSRLYNRYRYRHRCYNT are within error of each other in amyloid nucleation score: 0.436 ± 1.2 for the first, -0.072 ± 0.27 for the second.

MFYVPIGPLSRCWRTALGFI and MGDVFILFLLAGFLEDHNGY are within error of each other in amyloid nucleation score: -0.786 ± 0.85 for the first, -1.24 ± 0.45 for the second.

MGNLATRWFQR and MGRMS are within error of each other in amyloid nucleation score: -0.037 ± 1.4 for the first, 0.22 ± 0.69 for the second.

MGYCIWFYLKSYH and MHYGTLSIVV are within error of each other in amyloid nucleation score: -0.074 ± 0.3 for the first, 0.302 ± 0.3 for the second.

Going from MHYRGKFLHDHWHESH to MILFSYNG, the amyloid nucleation score rises from -0.485 ± 1.1 to 1.7 ± 0.58.

MILTTPAAERLLYYILPLRD and MIMTW are within error of each other in amyloid nucleation score: -0.616 ± 0.81 for the first, -0.418 ± 0.48 for the second.

MIQRGLVGKDSTHVI and MIRQFSVSICSTRSVCVHPR are within error of each other in amyloid nucleation score: -0.175 ± 0.57 for the first, -0.135 ± 0.59 for the second.

MITARSLSPRIFRAESAYSE and MITWKGLFPAGVGFLRLHA are within error of each other in amyloid nucleation score: 0.117 ± 0.36 for the first, -0.024 ± 0.43 for the second.

MKLNGFVWPG and MKNFPLYSCP are within error of each other in amyloid nucleation score: -0.256 ± 0.55 for the first, -0.66 ± 0.69 for the second.

MKSFSMLPYIIVFRYY and MLGDAIMGM are within error of each other in amyloid nucleation score: 0.823 ± 0.85 for the first, 1.09 ± 0.57 for the second.

MLGYIHAEVHVIVSWNLCLK and MLIFHTCA are within error of each other in amyloid nucleation score: -0.378 ± 0.53 for the first, 0.483 ± 1.1 for the second.

Going from MLIFNGFTLLVMRVEVAVGS to MLLSFLYLV, the amyloid nucleation score rises from 0.066 ± 0.64 to 5.26 ± 0.049.

MLNAIRSVGMSTHRSSEGG and MLPMLQPTLQET are within error of each other in amyloid nucleation score: -0.475 ± 0.77 for the first, 0.313 ± 0.42 for the second.

MLPRPVRPVGGTRWESGVKL and MLVPRSRIRIPACRFQHRLP are within error of each other in amyloid nucleation score: 0.548 ± 0.3 for the first, -0.064 ± 0.35 for the second.

MMGWV and MMKVIAANRVY are within error of each other in amyloid nucleation score: -0.619 ± 0.48 for the first, 0.315 ± 0.63 for the second.

MMNVTVKRFRLDQHRLIDCA and MMYDGIVSR are within error of each other in amyloid nucleation score: 0.383 ± 0.34 for the first, -0.184 ± 0.31 for the second.

MNENCGFVKFVRSKKRFKDV and MNRVDLCVNA are within error of each other in amyloid nucleation score: -0.287 ± 0.39 for the first, 0.438 ± 0.38 for the second.

MNVFRGSVPAFPLPPYMRLA and MPAMTMMWQ are within error of each other in amyloid nucleation score: -0.242 ± 0.34 for the first, 0.415 ± 0.4 for the second.

MPIEYG and MPIVKLTWLYTGVGAKPQVS are within error of each other in amyloid nucleation score: -0.27 ± 0.71 for the first, 0.211 ± 0.26 for the second.

MPVALKIAILTFWEKSNLCE and MQNRCSCWNFECRAPW are within error of each other in amyloid nucleation score: 1.27 ± 0.88 for the first, 1.06 ± 0.33 for the second.

MQTLNCSPNQAHSSIFN and MQVHARFYSFREEDIAGRAR are within error of each other in amyloid nucleation score: 0.915 ± 0.97 for the first, -0.443 ± 0.52 for the second.

Compared with MRCSDFELMWFQIDDKYVDN, MRGAVKVGEMWNHISESRVG is higher in amyloid nucleation score: -0.201 ± 0.17 for the first, 0.98 ± 0.6 for the second.

MRLSCLRRWGSTSVSTG and MRTLWVSKSGIRG are within error of each other in amyloid nucleation score: -0.305 ± 0.36 for the first, -0.15 ± 0.72 for the second.

Going from MSAGIVFIKQFVCS to MSCPRGILGSAIWTYSIGHS, the amyloid nucleation score falls from 3.25 ± 0.12 to -0.232 ± 1.7.

MSFSPLLFVLATFCFGLWCW and MSGFTESRCMGRMVALGPFD are within error of each other in amyloid nucleation score: -0.402 ± 0.78 for the first, 0.4 ± 1.4 for the second.

MSLSDNWGL and MSNKTDEDESIYNRVGVIMG are within error of each other in amyloid nucleation score: -0.288 ± 0.69 for the first, 0.004 ± 0.33 for the second.

Going from MSRCLIDSIEIFHWTGGRYA to MSSPMRRDAKL, the amyloid nucleation score rises from -0.386 ± 1.2 to 2.67 ± 0.14.

First: MSSRDNFWVSRGAMNYRMGA
Second: MSYSMVNGDSTF
The amyloid nucleation score of the first is lower: -0.325 ± 0.33 for the first, 2.33 ± 0.35 for the second.

MTKFCID and MTRNHFRYTWSVANMWERGF are within error of each other in amyloid nucleation score: 0.965 ± 0.66 for the first, -0.746 ± 1.3 for the second.

MVDMLVKMGYRLLGRYISMR and MVGRNWKTGSIVTLVMFRLE are within error of each other in amyloid nucleation score: 0.942 ± 0.69 for the first, 0.041 ± 1.1 for the second.

MVGSKSGKDGAQASSRKLAF and MVKRCVDNFRKWKSVDSSYR are within error of each other in amyloid nucleation score: 0.708 ± 0.34 for the first, 0.671 ± 0.37 for the second.

First: MVLDLVRRNAQL
Second: MVTTPFALTGFRDVMWCRAR
The amyloid nucleation score of the first is lower: -0.151 ± 0.68 for the first, 3.09 ± 0.092 for the second.

Compared with MVVFRSY, MVVYFNLPAVMLIDCMMSAI is higher in amyloid nucleation score: -2.07 ± 1.9 for the first, 0.708 ± 0.62 for the second.

Going from MVWSQVQLRIGVMVM to MWAIFSLWVCSR, the amyloid nucleation score rises from -0.562 ± 0.4 to 1.35 ± 0.41.

Compared with MWDGGKVNVFTFRAKRPCVG, MWHERVGDVTVAHSNVGVMI is higher in amyloid nucleation score: -0.215 ± 1.7 for the first, 3.85 ± 0.082 for the second.

MWLQHYWTHQAY and MYAFASSKYEHIS are within error of each other in amyloid nucleation score: 0.59 ± 0.88 for the first, 0.53 ± 0.32 for the second.

Going from MYEMTG to MYFFGQYVCYYWEH, the amyloid nucleation score rises from -0.388 ± 0.19 to 7.381 ± 0.058.

Going from MYIFVDIFAAQLVTRWKGFE to MYISRFRF, the amyloid nucleation score rises from -0.97 ± 1.9 to 3.42 ± 0.15.

Going from MYLFICVGSMVNQDVNEMMR to MYLVM, the amyloid nucleation score falls from 3.84 ± 0.084 to 0.191 ± 0.48.

In the case of MFRSRGLMAQRYNFGTQLSY, the amyloid nucleation score is reported as “inactive”.
In the case of MFVSLSSFSYLGKTLLVFFV, the amyloid nucleation score is reported as “inactive”.
With MIQVPFKCPCKLTADLGGNW the amyloid nucleation score was “inactive”.
With MMSPLKR the amyloid nucleation score was “inactive”.
In the case of MPDYVSFTSRMPLRLKLLLS, the amyloid nucleation score is reported as “inactive”.
